# In PMC3155514, “Subunit Interface Residues F129 and H294 of Human RAD51 Are Essential for Recombinase Function”:
# B1: 50 bp dsDNA (dsDNA)
# DNA 1: TCGAGAGGGTAAACCACAATTATTGATATAAAATAGTTTTGGGTAGGCGA
# DNA 2: TCGCCTACCCAAAACTATTTTATATCAATAATTGTGGTTTACCCTCTCGA
# Key:
# [1] = biological target: T1, HsRAD51 wild type (Homo sapiens, UniProt Q06609 1-339); assay: SPR; ATP (2.5 mM); SPR (Biacore 3000): 20 mM HEPES pH 7.5, 10% glycerol, 1 mM DTT, 1 mM MgCl2, 0.005% P-20, 2.5 mM indicated nucleotide, 150 mM KCl when indicated (text: salt similar to strand exchange), 25 C, 100 nM-1.6 uM protein; settings: protein: recombinant
# T1 sequence (Q06609 whole entry): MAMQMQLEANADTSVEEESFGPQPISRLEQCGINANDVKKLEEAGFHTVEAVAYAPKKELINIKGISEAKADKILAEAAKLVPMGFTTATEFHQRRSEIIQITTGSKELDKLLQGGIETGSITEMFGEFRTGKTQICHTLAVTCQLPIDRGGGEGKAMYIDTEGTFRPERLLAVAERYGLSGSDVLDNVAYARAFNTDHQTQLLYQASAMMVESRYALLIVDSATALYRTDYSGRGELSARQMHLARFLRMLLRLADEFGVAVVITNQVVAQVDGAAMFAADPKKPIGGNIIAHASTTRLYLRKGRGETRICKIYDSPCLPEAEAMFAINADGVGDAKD
# [2] = biological target: T1, HsRAD51 wild type; assay: SPR; ADP (2.5 mM); SPR (Biacore 3000): 20 mM HEPES pH 7.5, 10% glycerol, 1 mM DTT, 1 mM MgCl2, 0.005% P-20, 2.5 mM indicated nucleotide, 150 mM KCl when indicated (text: salt similar to strand exchange), 25 C, 100 nM-1.6 uM protein; settings: protein: recombinant; chain copies: 10; label: 5' biotin; single strand
# [3] = biological target: T2, HsRAD51(H294V) (Homo sapiens, UniProt Q06609 1-339, H294V); assay: SPR; no nucleotide; SPR (Biacore 3000): 20 mM HEPES pH 7.5, 10% glycerol, 1 mM DTT, 1 mM MgCl2, 0.005% P-20, 2.5 mM indicated nucleotide, 150 mM KCl when indicated (text: salt similar to strand exchange), 25 C, 100 nM-1.6 uM protein; settings: protein: recombinant; chain copies: 10; label: 5' biotin; single strand
# T2 sequence (Q06609 whole entry H294V): as the sequence (Q06609 whole entry) above, with H294V counted along it
# [4] = biological target: T1, HsRAD51 wild type; assay: as above; settings: protein: recombinant
# [5] = biological target: T2, HsRAD51(H294V); assay: SPR; ADP (2.5 mM); rapid dissociation; SPR (Biacore 3000): 20 mM HEPES pH 7.5, 10% glycerol, 1 mM DTT, 1 mM MgCl2, 0.005% P-20, 2.5 mM indicated nucleotide, 150 mM KCl when indicated (text: salt similar to strand exchange), 25 C, 100 nM-1.6 uM protein; settings: protein: recombinant; chain copies: 10; label: 5' biotin; single strand
# [6] = biological target: T3, HsRAD51(F129V) (Homo sapiens, UniProt Q06609 1-339, F129V); assay: as above; settings: protein: recombinant; chain copies: 10; label: 5' biotin; single strand
# T3 sequence (Q06609 whole entry F129V): as the sequence (Q06609 whole entry) above, with F129V counted along it
# [7] = biological target: T3, HsRAD51(F129V); assay: SPR; ADP (2.5 mM); SPR (Biacore 3000): 20 mM HEPES pH 7.5, 10% glycerol, 1 mM DTT, 1 mM MgCl2, 0.005% P-20, 2.5 mM indicated nucleotide, 150 mM KCl when indicated (text: salt similar to strand exchange), 25 C, 100 nM-1.6 uM protein; settings: protein: recombinant; chain copies: 16; label: 5' biotin on strand 1; blunt
# [8] = chain copies: 10, label: 5' biotin, single strand
# [9] = chain copies: 16, label: 5' biotin on strand 1, blunt
Binder,"Kd [1, 8]",Kd [2],Kd [3],"Kd [4, 8]",Kd [5],Kd [6],"Kd [1, 9]",Kd [7],"Kd [4, 9]"
TTTTTTTTTTTTTTTTTTTTTTTTTTTTTTTTTTTTTTTTTTTTTTTTTT (ssDNA) [dT50],90 nM,20 nM,28 nM,15 nM,43 nM,54 nM,,,
B1,,,,,,,262 nM,446 nM,264 nM
